To fix the notation:
B1: MTSP-1 Q38H/I41A/D60bW/ins97aV/F97D/T98P/F99L/C122S/I136M/Q192G/D217N (enzyme)
chain: VVGGTDADEGEWPWQVSLHALGHGHACGASLISPNWLVSAAHCYIDWRGFRYSDPTQWTAFLGLHDQSQRSAPGVQERRLKRIISHPFFNDDVPLDYDIALLELEKPAEYSSMVRPISLPDASHVFPAGKAMWVTGWGHTQYGGTGALILQKGEIRVINQTTCENLLPQQITPRMMCVGFLSGGVDSCGGDSGGPLSSVEADGRIFQAGVVSWGNGCAQRNKPGVYTRLPLFRDWIKENTGV
B2: MTSP-1 Q38H/I41T/D60bH/ins97aV/F97D/T98P/F99L/C122S/I136F/L153P/Q192G/D217Y (enzyme)
chain: VVGGTDADEGEWPWQVSLHALGHGHTCGASLISPNWLVSAAHCYIDHRGFRYSDPTQWTAFLGLHDQSQRSAPGVQERRLKRIISHPFFNDDVPLDYDIALLELEKPAEYSSMVRPISLPDASHVFPAGKAFWVTGWGHTQYGGTGAPILQKGEIRVINQTTCENLLPQQITPRMMCVGFLSGGVDSCGGDSGGPLSSVEADGRIFQAGVVSWGYGCAQRNKPGVYTRLPLFRDWIKENTGV
B3: MTSP-1 Q38H/I41S/D60bT/F93L/ins97aV/F97D/T98P/F99L/S115N/C122S/Q192V/F208L/D217Q (enzyme)
chain: VVGGTDADEGEWPWQVSLHALGHGHSCGASLISPNWLVSAAHCYIDTRGFRYSDPTQWTAFLGLHDQSQRSAPGVQERRLKRIISHPLFNDDVPLDYDIALLELEKPAEYNSMVRPISLPDASHVFPAGKAIWVTGWGHTQYGGTGALILQKGEIRVINQTTCENLLPQQITPRMMCVGFLSGGVDSCVGDSGGPLSSVEADGRILQAGVVSWGQGCAQRNKPGVYTRLPLFRDWIKENTGV
B4: MTSP-1 Q38H/I41S/P49Q/D60bS/F93L/ins97aV/F97D/T98P/F99L/C122S/Q192G/D217Q (enzyme)
chain: VVGGTDADEGEWPWQVSLHALGHGHSCGASLISQNWLVSAAHCYIDSRGFRYSDPTQWTAFLGLHDQSQRSAPGVQERRLKRIISHPLFNDDVPLDYDIALLELEKPAEYSSMVRPISLPDASHVFPAGKAIWVTGWGHTQYGGTGALILQKGEIRVINQTTCENLLPQQITPRMMCVGFLSGGVDSCGGDSGGPLSSVEADGRIFQAGVVSWGQGCAQRNKPGVYTRLPLFRDWIKENTGV
B5: MTSP-1 Q38K/I41T/D60bY/ins97aV/F97D/T98P/F99L/C122S/I136T/Q192G/F208V/D217R (enzyme)
chain: VVGGTDADEGEWPWQVSLHALGKGHTCGASLISPNWLVSAAHCYIDYRGFRYSDPTQWTAFLGLHDQSQRSAPGVQERRLKRIISHPFFNDDVPLDYDIALLELEKPAEYSSMVRPISLPDASHVFPAGKATWVTGWGHTQYGGTGALILQKGEIRVINQTTCENLLPQQITPRMMCVGFLSGGVDSCGGDSGGPLSSVEADGRIVQAGVVSWGRGCAQRNKPGVYTRLPLFRDWIKENTGV
B6: MTSP-1 Q38H/I41S/D60bT/ins97aV/F97D/T98P/F99L/C122S/I136V/Q192G/D217S (enzyme)
chain: VVGGTDADEGEWPWQVSLHALGHGHSCGASLISPNWLVSAAHCYIDTRGFRYSDPTQWTAFLGLHDQSQRSAPGVQERRLKRIISHPFFNDDVPLDYDIALLELEKPAEYSSMVRPISLPDASHVFPAGKAVWVTGWGHTQYGGTGALILQKGEIRVINQTTCENLLPQQITPRMMCVGFLSGGVDSCGGDSGGPLSSVEADGRIFQAGVVSWGSGCAQRNKPGVYTRLPLFRDWIKENTGV
B7: MTSP-1 Q38H/I41S/D60bS/F93L/D96Y/ins97aV/F97D/T98P/F99L/C122S/I136F/Q192G/D217V (enzyme)
chain: VVGGTDADEGEWPWQVSLHALGHGHSCGASLISPNWLVSAAHCYIDSRGFRYSDPTQWTAFLGLHDQSQRSAPGVQERRLKRIISHPLFNYDVPLDYDIALLELEKPAEYSSMVRPISLPDASHVFPAGKAFWVTGWGHTQYGGTGALILQKGEIRVINQTTCENLLPQQITPRMMCVGFLSGGVDSCGGDSGGPLSSVEADGRIFQAGVVSWGVGCAQRNKPGVYTRLPLFRDWIKENTGV
B8: MTSP-1 Q38H/I41S/D60bS/ins97aV/F97D/T98P/F99L/C122S/I136V/Q192G/D217V (enzyme)
chain: VVGGTDADEGEWPWQVSLHALGHGHSCGASLISPNWLVSAAHCYIDSRGFRYSDPTQWTAFLGLHDQSQRSAPGVQERRLKRIISHPFFNDDVPLDYDIALLELEKPAEYSSMVRPISLPDASHVFPAGKAVWVTGWGHTQYGGTGALILQKGEIRVINQTTCENLLPQQITPRMMCVGFLSGGVDSCGGDSGGPLSSVEADGRIFQAGVVSWGVGCAQRNKPGVYTRLPLFRDWIKENTGV

The target of this test is plasma purified human complement protein C3 (human) (UniProt P01024). The test can be described thus: cell-based or functional assay.
Chain of plasma purified human complement protein C3 (human) (P01024 23-667, chain 1 of 2): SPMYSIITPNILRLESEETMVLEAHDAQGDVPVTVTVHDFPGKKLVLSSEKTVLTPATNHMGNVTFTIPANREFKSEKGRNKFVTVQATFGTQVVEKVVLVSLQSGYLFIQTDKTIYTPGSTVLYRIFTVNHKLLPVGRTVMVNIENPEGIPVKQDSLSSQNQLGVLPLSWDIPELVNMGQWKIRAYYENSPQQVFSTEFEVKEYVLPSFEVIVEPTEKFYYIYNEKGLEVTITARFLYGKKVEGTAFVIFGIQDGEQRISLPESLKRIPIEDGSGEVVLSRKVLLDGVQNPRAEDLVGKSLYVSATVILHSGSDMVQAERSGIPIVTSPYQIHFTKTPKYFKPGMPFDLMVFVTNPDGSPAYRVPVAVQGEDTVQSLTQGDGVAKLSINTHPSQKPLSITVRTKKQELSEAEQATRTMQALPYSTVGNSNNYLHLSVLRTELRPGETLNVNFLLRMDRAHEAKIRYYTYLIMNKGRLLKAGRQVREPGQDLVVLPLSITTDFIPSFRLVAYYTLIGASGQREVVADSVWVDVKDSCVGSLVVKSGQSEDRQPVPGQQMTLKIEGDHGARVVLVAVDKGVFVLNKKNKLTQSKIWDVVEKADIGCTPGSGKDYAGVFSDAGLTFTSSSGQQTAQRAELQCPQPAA
Chain of plasma purified human complement protein C3 (human) (P01024 672-1663, chain 2 of 2): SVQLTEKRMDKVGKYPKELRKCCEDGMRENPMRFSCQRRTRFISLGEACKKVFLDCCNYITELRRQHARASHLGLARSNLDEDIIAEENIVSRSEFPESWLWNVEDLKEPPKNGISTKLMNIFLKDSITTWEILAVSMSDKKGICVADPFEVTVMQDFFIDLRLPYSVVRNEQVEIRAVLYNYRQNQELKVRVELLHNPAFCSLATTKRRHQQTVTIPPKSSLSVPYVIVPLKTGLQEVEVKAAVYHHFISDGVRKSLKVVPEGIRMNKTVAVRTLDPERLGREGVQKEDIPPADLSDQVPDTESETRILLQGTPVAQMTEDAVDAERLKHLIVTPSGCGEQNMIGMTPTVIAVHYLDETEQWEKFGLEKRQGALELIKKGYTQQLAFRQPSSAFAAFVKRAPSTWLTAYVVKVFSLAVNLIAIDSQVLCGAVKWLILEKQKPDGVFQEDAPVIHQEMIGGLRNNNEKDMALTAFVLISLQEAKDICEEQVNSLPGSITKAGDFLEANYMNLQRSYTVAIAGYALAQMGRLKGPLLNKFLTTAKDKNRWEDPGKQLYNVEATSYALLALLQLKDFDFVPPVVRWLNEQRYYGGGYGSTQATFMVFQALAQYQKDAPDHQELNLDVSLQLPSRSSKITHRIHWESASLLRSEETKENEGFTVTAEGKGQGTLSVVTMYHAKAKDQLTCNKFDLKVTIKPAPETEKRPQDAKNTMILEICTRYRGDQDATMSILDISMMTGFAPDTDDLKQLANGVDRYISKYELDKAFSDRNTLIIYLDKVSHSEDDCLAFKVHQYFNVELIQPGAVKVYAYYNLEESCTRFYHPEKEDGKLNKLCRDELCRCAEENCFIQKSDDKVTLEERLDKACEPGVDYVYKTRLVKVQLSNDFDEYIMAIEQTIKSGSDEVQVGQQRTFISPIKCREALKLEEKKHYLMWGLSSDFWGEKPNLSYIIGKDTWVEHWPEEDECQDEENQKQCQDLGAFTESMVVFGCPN
Regarding B1, the EC50 of hC3 cleavage amounted to 3.06 nM.
The molecule B2 had an EC50 of hC3 cleavage of 25.5 nM.
With B3 the figure was 45.8 nM.
With B4 the figure was 48.3 nM.
As for B5, the EC50 of hC3 cleavage turned out to be 19.5 nM.
B6 gave an EC50 of hC3 cleavage of 22.2 nM.
Under B7 stands 9.56 nM; under B8, 7.05 nM.

The values are drawn from patent US20240018502A1.
